Measurements reported in paper PMC9313502 (Advanced Science, 2022).

Molecular target: Biotinylated recombinant human TNF‐α (human, UniProt P01375 77-233, biotin on primary amines (lysine conjugation, NHS-PEG4-biotin))
Assay: ELISA; sparsely biotinylated hTNF-α (7.5 nM) held on avidin-coated 96-well plates; hTNFR1-ECD-HRP in solution, read at 450 nm with TMB; apparent EC50
Details: both partners purified

Sequence of Biotinylated recombinant human TNF‐α (P01375 77-233): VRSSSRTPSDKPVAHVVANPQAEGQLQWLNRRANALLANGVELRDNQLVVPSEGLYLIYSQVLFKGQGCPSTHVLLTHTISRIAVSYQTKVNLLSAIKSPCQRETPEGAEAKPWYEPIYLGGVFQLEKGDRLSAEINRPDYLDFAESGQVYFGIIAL

B1: HRP‐tagged human TNF‐α receptor 1 extracellular domain (receptor)
chain: RDSVCPQGKYIHPQNNSICCTKCHKGTYLYNDCPGPGQDTDCRECESGSFTASENHLRHCLSCSKCRKEMGQVEISSCTVDRDTVCGCRKNQYRHYWSENLFQCFNCSLCLNGTVHLSCQEKQNTVCTCHAGFFLRENECVSCSNCKKSLECTKLCLPQIEN
modifications: conjugated to horse‐radish peroxidase (HRP Conjugation Kit, Proteintech PK20001)
Question: For B1, which EC50 is on record?
Answer: 4.6 nM
